Reference: patent US20050191342A1

Molecular target: CD20 on Daudi target cells (human) (UniProt P11836)
Assay: cell-based or functional assay

Chain of UniProt P11836 (P11836 whole entry): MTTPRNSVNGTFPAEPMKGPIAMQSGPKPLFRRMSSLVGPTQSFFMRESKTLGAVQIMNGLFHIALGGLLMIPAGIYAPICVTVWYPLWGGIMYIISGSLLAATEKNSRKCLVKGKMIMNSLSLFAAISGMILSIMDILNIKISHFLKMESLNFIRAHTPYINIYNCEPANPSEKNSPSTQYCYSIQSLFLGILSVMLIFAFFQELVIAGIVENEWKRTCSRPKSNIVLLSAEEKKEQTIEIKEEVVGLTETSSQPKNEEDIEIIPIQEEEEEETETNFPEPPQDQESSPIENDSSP

ADCC, Cr release from Daudi target cells: 10 to 15%
Substance: Rituxan™ (antibody)
